Source: patent publication US20240050475A1

Target: human PRDX4 present on the cell surface of cancer cells (human) (UniProt Q13162)
Experiment: flow cytometry on ES-2 cells, control staining

Sequence of UniProt Q13162 (Q13162 38-271 limits assumed): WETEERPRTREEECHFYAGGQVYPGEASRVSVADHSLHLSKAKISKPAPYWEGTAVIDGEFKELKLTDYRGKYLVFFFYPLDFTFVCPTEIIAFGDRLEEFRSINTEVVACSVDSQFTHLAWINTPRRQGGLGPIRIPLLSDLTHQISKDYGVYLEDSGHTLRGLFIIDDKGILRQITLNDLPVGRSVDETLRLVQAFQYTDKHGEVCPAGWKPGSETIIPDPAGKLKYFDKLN

isotype antibody gave a mean (flow cytometry) of 159.
